Publication PMC9482650, “Quantitative fragmentomics allow affinity mapping of interactomes” (Nature Communications, 2022)

T1: SHANK1, Q9Y566
T1 sequence (Q9Y566 658-767, limits assumed, looked up): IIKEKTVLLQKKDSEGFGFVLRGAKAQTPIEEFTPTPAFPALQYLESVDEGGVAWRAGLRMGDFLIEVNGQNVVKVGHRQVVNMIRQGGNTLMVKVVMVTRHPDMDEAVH

T2: GRIP1_5, Q9Y3R0
T2 sequence (Q9Y3R0 568-668, limits assumed, looked up): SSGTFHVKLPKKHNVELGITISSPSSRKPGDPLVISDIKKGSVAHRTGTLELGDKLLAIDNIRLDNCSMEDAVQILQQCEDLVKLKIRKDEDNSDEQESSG

T3: DLG3_1, Q92796
T3 sequence (Q92796 125-227, limits assumed, looked up): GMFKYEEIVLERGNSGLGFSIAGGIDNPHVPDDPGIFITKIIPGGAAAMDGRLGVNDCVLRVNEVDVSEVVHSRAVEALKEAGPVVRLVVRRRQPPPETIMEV

T4: PDZD7_3, Q9H5P4
T4 sequence (Q9H5P4 857-944, limits assumed, looked up): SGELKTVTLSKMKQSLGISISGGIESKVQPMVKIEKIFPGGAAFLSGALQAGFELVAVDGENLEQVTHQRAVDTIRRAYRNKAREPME

T5: TJP3_3, O95049
T5 sequence (O95049 375-456, limits assumed, looked up): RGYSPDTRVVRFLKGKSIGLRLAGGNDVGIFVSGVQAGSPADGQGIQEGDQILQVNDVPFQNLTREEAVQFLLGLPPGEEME

T6: APBA2_2, Q99767
T6 sequence (Q99767 654-744, limits assumed, looked up): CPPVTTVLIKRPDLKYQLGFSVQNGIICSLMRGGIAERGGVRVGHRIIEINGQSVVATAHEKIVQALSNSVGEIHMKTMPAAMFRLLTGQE

T7: SYNJ2BP, P57105
T7 sequence (P57105 8-110, limits assumed, looked up): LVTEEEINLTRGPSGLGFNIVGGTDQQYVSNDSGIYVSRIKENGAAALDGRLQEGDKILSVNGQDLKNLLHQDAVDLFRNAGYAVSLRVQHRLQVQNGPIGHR

T8: SNTB1, Q13884
T8 sequence (Q13884 107-205, limits assumed, looked up): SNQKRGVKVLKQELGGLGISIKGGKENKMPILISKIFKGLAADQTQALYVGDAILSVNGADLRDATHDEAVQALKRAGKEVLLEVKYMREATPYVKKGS

T9: SNTA1, Q13424
T9 sequence (Q13424 82-180, limits assumed, looked up): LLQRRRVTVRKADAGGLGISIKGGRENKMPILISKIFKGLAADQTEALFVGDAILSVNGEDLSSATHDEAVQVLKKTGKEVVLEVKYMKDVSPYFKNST

T10: SIPA1L2, Q9P2F8
T10 sequence (Q9P2F8 945-1036, limits assumed, looked up): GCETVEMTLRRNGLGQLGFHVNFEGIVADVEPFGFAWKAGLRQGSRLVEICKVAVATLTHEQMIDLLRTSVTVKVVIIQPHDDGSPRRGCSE

T11: DVL3, Q92997
T11 sequence (Q92997 244-331, limits assumed, looked up): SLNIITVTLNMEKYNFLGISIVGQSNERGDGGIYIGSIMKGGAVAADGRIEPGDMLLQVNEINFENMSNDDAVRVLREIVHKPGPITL

T12: APBA3_1, O96018
T12 sequence (O96018 389-490, limits assumed, looked up): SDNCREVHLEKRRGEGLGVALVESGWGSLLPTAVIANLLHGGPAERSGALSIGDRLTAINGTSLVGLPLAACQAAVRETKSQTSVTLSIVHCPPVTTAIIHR

T13: CARD11, Q9BXL7
T13 sequence (Q9BXL7 662-765, limits assumed, looked up): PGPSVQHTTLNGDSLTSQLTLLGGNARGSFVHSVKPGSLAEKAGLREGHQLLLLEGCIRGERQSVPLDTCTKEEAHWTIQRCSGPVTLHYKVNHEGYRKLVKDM


target: T1, SHANK1, Q9Y566; experiment: holdup assay; set-up: key: below the threshold = too weak to quantify, mostly under pKd 3.1 to 4; conditions: plain residues with an end cap or a label only (N-terminal biotin on a linker: ado-ado)

pKd	Binder
below the threshold	PEYLGLDVPV [ERBB2, P04626]

target: MAGI2_6, Q86UL8; experiment: holdup assay; set-up: key: below the threshold = too weak to quantify, mostly under pKd 3.1 to 4; conditions: plain residues with an end cap or a label only (N-terminal biotin on a linker: ado-ado)
Sequence (Q86UL8 1141-1229): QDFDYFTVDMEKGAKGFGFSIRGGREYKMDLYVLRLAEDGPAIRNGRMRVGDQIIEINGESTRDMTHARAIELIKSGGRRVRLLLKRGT

pKd	Binder
below the threshold	PEYLGLDVPV [ERBB2, P04626]

target: T2, GRIP1_5, Q9Y3R0; experiment: holdup assay; set-up: key: below the threshold = too weak to quantify, mostly under pKd 3.1 to 4; conditions: plain residues with an end cap or a label only (N-terminal biotin on a linker: ado-ado)

pKd	Binder
below the threshold	PEYLGLDVPV [ERBB2, P04626]

target: T3, DLG3_1, Q92796; experiment: holdup assay; set-up: key: below the threshold = too weak to quantify, mostly under pKd 3.1 to 4; conditions: plain residues with an end cap or a label only (N-terminal biotin on a linker: ado-ado)

pKd	Binder
below the threshold	PEYLGLDVPV [ERBB2, P04626]

target: T4, PDZD7_3, Q9H5P4; experiment: holdup assay; set-up: key: below the threshold = too weak to quantify, mostly under pKd 3.1 to 4; conditions: plain residues with an end cap or a label only (N-terminal biotin on a linker: ado-ado)

pKd	Binder
below the threshold	PEYLGLDVPV [ERBB2, P04626]

target: T5, TJP3_3, O95049; experiment: holdup assay; set-up: key: below the threshold = too weak to quantify, mostly under pKd 3.1 to 4; conditions: plain residues with an end cap or a label only (N-terminal biotin on a linker: ado-ado)

pKd	Binder
below the threshold	PEYLGLDVPV [ERBB2, P04626]

target: T6, APBA2_2, Q99767; experiment: holdup assay; set-up: key: below the threshold = too weak to quantify, mostly under pKd 3.1 to 4; conditions: plain residues with an end cap or a label only (N-terminal biotin on a linker: ado-ado)

pKd	Binder
below the threshold	PEYLGLDVPV [ERBB2, P04626]

target: T7, SYNJ2BP, P57105; experiment: holdup assay; set-up: key: below the threshold = too weak to quantify, mostly under pKd 3.1 to 4; conditions: plain residues with an end cap or a label only (N-terminal biotin on a linker: ado-ado)

pKd	Binder
below the threshold	PEYLGLDVPV [ERBB2, P04626]

target: T8, SNTB1, Q13884; experiment: holdup assay; set-up: key: below the threshold = too weak to quantify, mostly under pKd 3.1 to 4; conditions: plain residues with an end cap or a label only (N-terminal biotin on a linker: ado-ado)

pKd	Binder
3.92	PEYLGLDVPV [ERBB2, P04626]

target: DLG5_1, Q8TDM6; experiment: holdup assay; set-up: key: below the threshold = too weak to quantify, mostly under pKd 3.1 to 4; conditions: plain residues with an end cap or a label only (N-terminal biotin on a linker: ado-ado)
Sequence (Q8TDM6 617-713): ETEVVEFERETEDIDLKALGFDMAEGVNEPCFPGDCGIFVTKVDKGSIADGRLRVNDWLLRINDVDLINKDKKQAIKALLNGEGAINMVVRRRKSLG

pKd	Binder
below the threshold	PEYLGLDVPV [ERBB2, P04626]

target: MAGI2_5, Q86UL8; experiment: holdup assay; set-up: key: below the threshold = too weak to quantify, mostly under pKd 3.1 to 4; conditions: plain residues with an end cap or a label only (N-terminal biotin on a linker: ado-ado)
Sequence (Q86UL8 915-1017): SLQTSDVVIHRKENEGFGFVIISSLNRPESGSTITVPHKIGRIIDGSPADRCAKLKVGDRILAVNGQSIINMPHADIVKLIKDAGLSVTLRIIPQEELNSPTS

pKd	Binder
below the threshold	PEYLGLDVPV [ERBB2, P04626]

target: HTRA1, Q92743; experiment: holdup assay; set-up: key: below the threshold = too weak to quantify, mostly under pKd 3.1 to 4; conditions: plain residues with an end cap or a label only (N-terminal biotin on a linker: ado-ado)
Sequence (Q92743 360-477): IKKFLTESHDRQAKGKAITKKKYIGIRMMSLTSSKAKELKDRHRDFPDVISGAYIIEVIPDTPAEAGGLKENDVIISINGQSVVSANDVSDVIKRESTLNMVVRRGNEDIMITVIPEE

pKd	Binder
3.59	PEYLGLDVPV [ERBB2, P04626]

target: PDLIM1, O00151; experiment: holdup assay; set-up: key: below the threshold = too weak to quantify, mostly under pKd 3.1 to 4; conditions: plain residues with an end cap or a label only (N-terminal biotin on a linker: ado-ado)
Sequence (O00151 1-87): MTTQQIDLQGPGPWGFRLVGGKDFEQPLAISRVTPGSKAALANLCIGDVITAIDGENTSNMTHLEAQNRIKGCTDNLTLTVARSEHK

pKd	Binder
below the threshold	PEYLGLDVPV [ERBB2, P04626]

target: T9, SNTA1, Q13424; experiment: holdup assay; set-up: key: below the threshold = too weak to quantify, mostly under pKd 3.1 to 4; conditions: plain residues with an end cap or a label only (N-terminal biotin on a linker: ado-ado)

pKd	Binder
3.61	PEYLGLDVPV [ERBB2, P04626]

target: T10, SIPA1L2, Q9P2F8; experiment: holdup assay; set-up: key: below the threshold = too weak to quantify, mostly under pKd 3.1 to 4; conditions: plain residues with an end cap or a label only (N-terminal biotin on a linker: ado-ado)

pKd	Binder
below the threshold	PEYLGLDVPV [ERBB2, P04626]

target: SCRIB_2, Q14160; experiment: holdup assay; set-up: key: below the threshold = too weak to quantify, mostly under pKd 3.1 to 4; conditions: plain residues with an end cap or a label only (N-terminal biotin on a linker: ado-ado)
Sequence (Q14160 857-960): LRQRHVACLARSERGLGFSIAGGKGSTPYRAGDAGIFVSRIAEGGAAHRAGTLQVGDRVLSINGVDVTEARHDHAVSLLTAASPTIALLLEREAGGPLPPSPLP

pKd	Binder
below the threshold	PEYLGLDVPV [ERBB2, P04626]

target: MAST1, Q9Y2H9; experiment: holdup assay; set-up: key: below the threshold = too weak to quantify, mostly under pKd 3.1 to 4; conditions: plain residues with an end cap or a label only (N-terminal biotin on a linker: ado-ado)
Sequence (Q9Y2H9 962-1065): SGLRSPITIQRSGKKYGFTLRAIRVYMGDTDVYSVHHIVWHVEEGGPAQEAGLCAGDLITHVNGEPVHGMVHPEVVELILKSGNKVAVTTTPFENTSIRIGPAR

pKd	Binder
3.98	PEYLGLDVPV [ERBB2, P04626]

target: GRIP2_4, Q9C0E4; experiment: holdup assay; set-up: key: below the threshold = too weak to quantify, mostly under pKd 3.1 to 4; conditions: plain residues with an end cap or a label only (N-terminal biotin on a linker: ado-ado)
Sequence (Q9C0E4 446-548): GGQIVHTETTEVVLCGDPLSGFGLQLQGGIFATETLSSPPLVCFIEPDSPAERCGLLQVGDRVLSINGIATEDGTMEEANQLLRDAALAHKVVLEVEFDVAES

pKd	Binder
below the threshold	PEYLGLDVPV [ERBB2, P04626]

target: T11, DVL3, Q92997; experiment: holdup assay; set-up: key: below the threshold = too weak to quantify, mostly under pKd 3.1 to 4; conditions: plain residues with an end cap or a label only (N-terminal biotin on a linker: ado-ado)

pKd	Binder
below the threshold	PEYLGLDVPV [ERBB2, P04626]

target: Inadl_4, Q8NI35; experiment: holdup assay; set-up: key: below the threshold = too weak to quantify, mostly under pKd 3.1 to 4; conditions: plain residues with an end cap or a label only (N-terminal biotin on a linker: ado-ado)
Sequence (Q8NI35 547-651): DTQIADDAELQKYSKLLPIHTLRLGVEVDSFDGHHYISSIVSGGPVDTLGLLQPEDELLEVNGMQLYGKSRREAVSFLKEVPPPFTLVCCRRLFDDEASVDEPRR

pKd	Binder
below the threshold	PEYLGLDVPV [ERBB2, P04626]

target: T12, APBA3_1, O96018; experiment: holdup assay; set-up: key: below the threshold = too weak to quantify, mostly under pKd 3.1 to 4; conditions: plain residues with an end cap or a label only (N-terminal biotin on a linker: ado-ado)

pKd	Binder
below the threshold	PEYLGLDVPV [ERBB2, P04626]

target: GRID2IP_2, A4D2P6; experiment: holdup assay; set-up: key: below the threshold = too weak to quantify, mostly under pKd 3.1 to 4; conditions: plain residues with an end cap or a label only (N-terminal biotin on a linker: ado-ado)
Sequence (A4D2P6 272-370): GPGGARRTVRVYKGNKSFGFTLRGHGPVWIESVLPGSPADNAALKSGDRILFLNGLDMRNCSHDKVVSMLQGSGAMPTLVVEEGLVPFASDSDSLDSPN

pKd	Binder
below the threshold	PEYLGLDVPV [ERBB2, P04626]

target: T13, CARD11, Q9BXL7; experiment: holdup assay; set-up: key: below the threshold = too weak to quantify, mostly under pKd 3.1 to 4; conditions: plain residues with an end cap or a label only (N-terminal biotin on a linker: ado-ado)

pKd	Binder
below the threshold	PEYLGLDVPV [ERBB2, P04626]

target: Inadl_6, Q8NI35; experiment: holdup assay; set-up: key: below the threshold = too weak to quantify, mostly under pKd 3.1 to 4; conditions: plain residues with an end cap or a label only (N-terminal biotin on a linker: ado-ado)
Sequence (Q8NI35 1058-1167): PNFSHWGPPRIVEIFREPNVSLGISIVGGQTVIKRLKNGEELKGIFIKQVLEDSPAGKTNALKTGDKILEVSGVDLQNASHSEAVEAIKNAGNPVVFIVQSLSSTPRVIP

pKd	Binder
below the threshold	PEYLGLDVPV [ERBB2, P04626]

target: DLG1_1, Q12959; experiment: holdup assay; set-up: key: below the threshold = too weak to quantify, mostly under pKd 3.1 to 4; conditions: plain residues with an end cap or a label only (N-terminal biotin on a linker: ado-ado)

pKd	Binder
below the threshold	PEYLGLDVPV [ERBB2, P04626]
